From patent US20200283487A1 (UNIVERSITY OF SOUTHAMPTON, published 2020) come the findings set out here.

This assay deals with T1, BSA (UniProt P02769 25-607).
T1 construct: Negative control analyte on the Biacore chip; also called BSA negative control
Description: SPR (Biacore), rfhSP-A immobilised to ~700 RU, BSA as soluble analyte. (SPR reads the build-up and loss of mass on a sensor chip optically.)

T1 sequence (P02769 25-607 limits assumed): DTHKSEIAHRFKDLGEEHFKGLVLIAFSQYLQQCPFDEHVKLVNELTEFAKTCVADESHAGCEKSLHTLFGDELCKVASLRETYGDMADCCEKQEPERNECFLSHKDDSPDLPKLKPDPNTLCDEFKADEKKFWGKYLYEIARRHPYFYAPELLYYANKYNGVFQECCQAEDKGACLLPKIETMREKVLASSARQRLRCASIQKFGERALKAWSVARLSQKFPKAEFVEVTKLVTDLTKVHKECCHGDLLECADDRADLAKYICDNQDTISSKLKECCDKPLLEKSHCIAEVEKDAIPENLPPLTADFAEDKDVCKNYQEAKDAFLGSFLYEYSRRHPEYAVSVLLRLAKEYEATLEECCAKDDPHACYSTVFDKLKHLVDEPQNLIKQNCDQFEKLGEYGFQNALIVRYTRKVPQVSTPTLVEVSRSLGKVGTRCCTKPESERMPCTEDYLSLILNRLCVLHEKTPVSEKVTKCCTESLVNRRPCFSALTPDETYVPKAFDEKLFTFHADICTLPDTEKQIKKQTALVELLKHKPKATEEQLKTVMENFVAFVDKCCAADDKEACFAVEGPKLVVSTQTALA

B1: rfhSP-A (recombinant fragment of human surfactant protein A; truncated SP-A polypeptide) (other)
chain: not shown
notes: C-type lectin (collectin) fragment; also called rhfSP-A; trimeric rfhSP-A
On to B1, for which the binding result is given as “no binding”.
